Results as given in the supplement of paper PMC10724198.
± gives the standard deviation of the averaged measurements.

What was measured:
Saccharomyces cerevisiae [1] = experiment: protein stability index of tFT-peptide fusion (C-terminal peptide) (PSI (0-1 scale)); higher = more stable (slower turnover); settings: genetic background: wild type; temperature: 30 C
Saccharomyces cerevisiae [2] = experiment: as above
Protocol: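 MPS profiling in S. cerevisiae of the tFT-X12 degron library: putative degron peptides plus stable controls, 12 aa, fused to the C-terminus of a sfGFP-mCherry timer. Cells are FACS-sorted into 8 mCherry/sfGFP bins and deep-sequenced. PSI runs from 0 (unstable) to 1 (stable). Backgrounds are wild type, das1Δ and doa10Δ at 30 °C, and wild type, das1Δ, cdc34-1 and cdc53-1 at 37 °C; 2-3 technical replicates each.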

[3] = genetic background: cdc34-1, temperature: 37 C
[4] = genetic background: cdc53-1, temperature: 37 C
[5] = genetic background: das1 deletion, temperature: 30 C
[6] = genetic background: das1 deletion, temperature: 37 C
[7] = genetic background: doa10 deletion, temperature: 30 C
[8] = genetic background: wild type, temperature: 30 C
[9] = genetic background: wild type, temperature: 37 C
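Note: PSI is a weighted mean of sequencing reads over stability bins, variants kept only with over 10 reads, mCherry proximal and sfGFP distal, peptide attached via GGGS linker.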

Sequence	protein stability index (Saccharomyces cerevisiae [1])	protein stability index (Saccharomyces cerevisiae [2]; [3])	protein stability index (Saccharomyces cerevisiae [2]; [4])	protein stability index (Saccharomyces cerevisiae [2]; [5])	protein stability index (Saccharomyces cerevisiae [2]; [6])	protein stability index (Saccharomyces cerevisiae [2]; [7])	protein stability index (Saccharomyces cerevisiae [2]; [8])	protein stability index (Saccharomyces cerevisiae [2]; [9])
PSTLVITVVITK	0.37 ± 0.038	0.247 ± 0.019	0.29 ± 0.0099	0.279 ± 0.029	0.4255 ± 0.0021	0.23 ± 0.023	0.243 ± 0.03	0.389 ± 0.02
DFVYFPPIPVSS	0.337 ± 0.018	0.303 ± 0.0088	0.352 ± 0.039	0.253 ± 0.051	0.462 ± 0.011	0.218 ± 0.0036	0.266 ± 0.032	0.409 ± 0.006
SYVLLQSYVSLV	0.451 ± 0.021	0.566 ± 0.017	0.623 ± 0.016	0.474 ± 0.0091	0.643 ± 0.016	0.318 ± 0.016	0.352 ± 0.029	0.613 ± 0.083
LQSVAFERGGPD	0.727 ± 0.018	0.687 ± 0.017	0.736 ± 0.0092	0.649 ± 0.0084	0.729 ± 0.015	0.647 ± 0.026	0.661 ± 0.0084	0.7194 ± 0.0071
SCGVYVVFVLVE	0.286 ± 0.16	0.0658 ± 0.027	0.133 ± 0.047	0.16 ± 0.042	0.294 ± 0.006	0.128 ± 0.026	0.152 ± 0.022	0.246 ± 0.0014
GTWCLAMARFCA	0.4775 ± 0.0038	0.615 ± 0.056	0.755 ± 0.016	0.662 ± 0.026	0.762 ± 0.047	0.351 ± 0.025	0.375 ± 0.025	0.606 ± 0.039
EWRPYKRNKQSS	0.353 ± 0.13	0.63 ± 0.011	0.759 ± 0.053	0.638 ± 0.028	0.755 ± 0.023	0.223 ± 0.016	0.211 ± 0.028	0.4112 ± 0.0037
CFVFYALFGFAV	0.401 ± 0.013	0.37 ± 0.037	0.463 ± 0.027	0.302 ± 0.036	0.484 ± 0.0052	0.252 ± 0.0068	0.285 ± 0.017	0.431 ± 0.046
LAKPTVRKIICV	0.419 ± 0.007	0.41 ± 0.0086	0.387 ± 0.025	0.301 ± 0.049	0.4672 ± 0.0038	0.263 ± 0.017	0.296 ± 0.04	0.421 ± 0.0089
GTSDLIALLMLT	0.509 ± 0.083	0.688 ± 0.047	0.7275 ± 0.0021	0.607 ± 0.011	0.7058 ± 0.0013	0.361 ± 0.026	0.403 ± 0.045	0.601 ± 0.007
RVVILFVFLVYV	0.3235 ± 0.0031	0.269 ± 0.013	0.342 ± 0.0015	0.258 ± 0.037	0.376 ± 0.0065	0.2526 ± 0.0011	0.25 ± 0.018	0.365 ± 0.014
VYGSLPVVVCRI	0.525 ± 0.065	0.534 ± 0.059	0.538 ± 0.013	0.409 ± 0.023	0.56 ± 0.016	0.4 ± 0.022	0.413 ± 0.011	0.539 ± 0.011
ACLVAVWRWVFV	0.126 ± 0.024	0.276 ± 0.017	0.44 ± 0.037	0.309 ± 0.024	0.475 ± 0.0051	0.0646 ± 0.012	0.0758 ± 0.0066	0.0704 ± 0.0067
SVFCSLFLFLFY	0.422 ± 0.037	0.477 ± 0.025	0.5013 ± 0.0034	0.4 ± 0.032	0.5568 ± 0.0013	0.414 ± 0.026	0.388 ± 0.01	0.517 ± 0.026
FIVVSFCFFLFF	0.343 ± 0.067	0.331 ± 0.06	0.382 ± 0.0069	0.301 ± 0.023	0.4351 ± 0.0036	0.31 ± 0.03	0.263 ± 0.045	0.414 ± 0.013
ASAYCCMITRLN	0.172 ± 0.042	0.485 ± 0.09	0.574 ± 0.086	0.629 ± 0.012	0.611 ± 0.047	0.0987 ± 0.011	0.0882 ± 0.026	0.1737 ± 0.00037
VSDLYLSLVRVV	0.45 ± 0.078	0.59 ± 0.032	0.593 ± 0.011	0.46 ± 0.034	0.604 ± 0.009	0.256 ± 0.0031	0.31 ± 0.029	0.492 ± 0.017
YTPPISRLLIFT	0.497 ± 0.097	0.528 ± 0.031	0.532 ± 0.0094	0.39 ± 0.035	0.564 ± 0.016	0.353 ± 0.019	0.364 ± 0.052	0.494 ± 0.022
GESCGGSERRVG	0.643 ± 0.3	0.69 ± 0.019	0.7319 ± 0.0058	0.637 ± 0.009	0.7352 ± 0.0033	0.636 ± 0.024	0.666 ± 0.031	0.6897 ± 0.0056
CYFLFFLSYSLE	0.297 ± 0.0097	0.237 ± 0.0066	0.343 ± 0.045	0.231 ± 0.05	0.455 ± 0.019	0.194 ± 0.039	0.226 ± 0.029	0.439 ± 0.0046

Sequence	protein stability index (Saccharomyces cerevisiae [1])	protein stability index (Saccharomyces cerevisiae [2]; [3])	protein stability index (Saccharomyces cerevisiae [2]; [4])	protein stability index (Saccharomyces cerevisiae [2]; [5])	protein stability index (Saccharomyces cerevisiae [2]; [6])	protein stability index (Saccharomyces cerevisiae [2]; [7])	protein stability index (Saccharomyces cerevisiae [2]; [8])	protein stability index (Saccharomyces cerevisiae [2]; [9])
LWWTRVILYGYI	0.387 ± 0.036	0.51 ± 0.0061	0.571 ± 0.021	0.456 ± 0.027	0.5496 ± 0.0039	0.34 ± 0.0087	0.353 ± 0.016	0.445 ± 0.013
RVCWLRAFGFLV	0.305 ± 0.028	0.666 ± 0.033	0.718 ± 0.019	0.587 ± 0.022	0.724 ± 0.024	0.258 ± 0.015	0.29 ± 0.051	0.57118 ± 0.00039
CRLLYYIPCGLF	0.49841 ± 0.00044	0.656 ± 0.02	0.703 ± 0.026	0.534 ± 0.029	0.701 ± 0.035	0.359 ± 0.022	0.403 ± 0.014	0.5973 ± 0.00064
SPLASLRFWCFC	0.437 ± 0.015	0.68 ± 0.059	0.768 ± 0.0088	0.6502 ± 0.0037	0.778 ± 0.018	0.335 ± 0.01	0.349 ± 0.028	0.592 ± 0.024
FCFYLLFLGFTR	0.431 ± 0.011	0.475 ± 0.035	0.512 ± 0.042	0.364 ± 0.027	0.546 ± 0.053	0.37 ± 0.01	0.324 ± 0.018	0.523 ± 0.029
LLILIVNLRRIG	0.281 ± 0.052	0.376 ± 0.0085	0.556 ± 0.069	0.36 ± 0.04	0.607 ± 0.028	0.1983 ± 0.0009	0.235 ± 0.011	0.444 ± 0.025
FFLRFGLFLFTL	0.421 ± 0.049	0.491 ± 0.0061	0.5109 ± 0.004	0.429 ± 0.017	0.564 ± 0.0091	0.4004 ± 0.0018	0.367 ± 0.05	0.4928 ± 0.0041
SFHTFFCPFFIL	0.205 ± 0.024	0.53 ± 0.051	0.6678 ± 0.0037	0.645 ± 0.038	0.713 ± 0.032	0.189 ± 0.0043	0.168 ± 0.023	0.288 ± 0.022
VCLFRLVVFFPV	0.349 ± 0.005	0.234 ± 0.039	0.335 ± 0.024	0.217 ± 0.021	0.426 ± 0.037	0.196 ± 0.02	0.222 ± 0.018	0.377 ± 0.014
KAIILGNIKINF	0.539 ± 0.16	0.729 ± 0.018	0.744 ± 0.016	0.6368 ± 0.0023	0.714 ± 0.011	0.638 ± 0.026	0.624 ± 0.018	0.741 ± 0.045
LSYRFVFRFLLF	0.421 ± 0.0094	0.543 ± 0.067	0.592 ± 0.0035	0.525 ± 0.013	0.573 ± 0.014	0.39 ± 0.017	0.372 ± 0.027	0.472 ± 0.0083
RSRRNRYSRKIA	0.184 ± 0.013	0.506 ± 0.024	0.659 ± 0.031	0.696 ± 0.043	0.6959 ± 0.0048	0.0765 ± 0.034	0.0787 ± 0.024	0.141 ± 0.03
YVWPKRRGLRVA	0.433 ± 0.013	0.611 ± 0.036	0.674 ± 0.023	0.467 ± 0.03	0.679 ± 0.009	0.197 ± 0.019	0.261 ± 0.038	0.49 ± 0.025
LCFVFVLGFFAF	0.421 ± 0.017	0.379 ± 0.058	0.4836 ± 0.0019	0.349 ± 0.031	0.488 ± 0.0085	0.319 ± 0.011	0.334 ± 0.012	0.501 ± 0.022
RSKKIFLTKKYS	0.281 ± 0.075	0.608 ± 0.053	0.734 ± 0.042	0.64 ± 0.035	0.701 ± 0.018	0.162 ± 0.0021	0.202 ± 0.025	0.395 ± 0.044
PSPPPPLPPHPS	0.721 ± 0.025	0.688 ± 0.039	0.7321 ± 0.0069	0.69 ± 0.031	0.72 ± 0.01	0.685 ± 0.019	0.667 ± 0.013	0.716 ± 0.032
SGPNASRFYAPI	0.696 ± 0.041	0.672 ± 0.04	0.733 ± 0.0081	0.634 ± 0.013	0.72486 ± 8.5e-06	0.657 ± 0.034	0.656 ± 0.037	0.704 ± 0.011
VFFIFFFAFLFF	0.329 ± 0.051	0.294 ± 0.035	0.289 ± 0.0075	0.335 ± 0.052	0.41 ± 0.0072	0.393 ± 0.01	0.322 ± 0.014	0.39 ± 0.03
TVYMVIRVIVWG	0.207 ± 0.027	0.129 ± 0.023	0.126 ± 0.046	0.141 ± 0.055	0.246 ± 0.0077	0.0909 ± 0.023	0.102 ± 0.032	0.154 ± 0.013
